Tests used:
E. necator = assay: SIGS, E. necator spore production on V. vinifera (whole plant and leaf disc assays); type: in vivo, Erysiphe necator; details: for visual powdery mildew coverage and density: V. vinifera leaves, 9 days post infection, vs buffer alone
Source text: Spore suspension concentrations were normalized to the input tissue weight (g) before being normalized to the control.
Spore suspension concentrations were normalized to the input tissue weight (g) before being normalized to the control. CYP51 is included as a positive control gene required for growth. Error bars±SEM. *p<0.05 by Student's T-Test (unpaired, 2-tailed) compared to control.
With SIGS methods optimized and gene targets identified, we sought to translate these methods and targets to grape powdery mildew (FIG. 2). New long dsRNAs were designed for each target tested as there is significant sequence divergence between G. orontii MGH1 and E. necator c. First, procedures were optimized for the grapevine system by silencing CYP51. Spore production was reduced by 62% and 45% in grapevine whole plant and leaf disc assays, respectively when treated with long dsRNA against the same region of CYP51 as dsRNA-1 against G. orontii MGH1 CYP51 (FIG. 2; FIG. 7, panel a). […] We tested SIGS against the effective targets including AATF in the grapevine system, as we were interested in ascertaining whether they would show a statistically significant difference in grape powdery mildew spore production. […] The average reduction of powdery mildew spore production for SIGS against CYP51 and AATF was greater in E. necator compared to G. orontii (FIG. 4 and FIG. 7). One notable difference is G. orontii has 2 copies each of CYP51 and AATF while E. necator has 1 copy of each of these genes. SIGS against the other effective targets also were effective in reducing powdery mildew of grapevine (FIG. 7).
As the full G. orontii MGH1 OEC60/OEC61 is conserved in other powdery mildews (Table 6) and has the potential to interact with both TCP13 and TCP14, we tested whether findings in the G. orontii MGH1-Arabidopsis pathosystem can translate to an agriculturally important pathosystem, powdery mildew of grapevine. To do so, we identified an OEC60/OEC61 homolog in E. necator c (Jones et al., 2014) and designed a long dsRNA to target this gene in the same region effective for G. orontii. Targeting of OEC60/OEC61 in Erysiphe necator by SIGS reduces grape powdery mildew production on V. vinifera leaves to 71% of control treated plants (FIG. 12), similar to the reduction seen with the Arabidopsis powdery mildew (FIG. 10, panel d).

[1] = test system: grapevine powdery mildew E. necator; assay: Vineyard field trials of topical dsRNA: powdery mildew disease incidence and disease severity (Kearney and Armstrong sites); type: in vivo, Erysiphe necator; details: for powdery mildew disease incidence: Chenin Blanc, 3 weeks after end of treatments (June 23), untreated ~80%; for mean disease severity (percent of berries with powdery mildew per bunch): June 28, almost 4 weeks post dsRNA treatment, untreated 12%
Experimental: The tests were done at Kearney Agriculture Research and Extension Center, Parlier, CA (Fresno County) and Armstrong Plant Pathology Field Station at University of California, Davis, CA. Susceptible grapevine cultivars were tested—Sauvignon Blanc at Kearney and Chenin Blanc at Davis. In both cases, the Stihl backpack sprayer SR450 was used and sprayer calibration, and normalization was performed to ensure equal doses of treatment applied to each replicate. During the trial period, vines were irrigated by drip irrigation and the regular maintenance of weeding, herbicide and insecticide treatments were done by the Kearney or Davis site field staff. In early season, 2.0 gallons/5 replicates and in mid to late season 2.5 to 3.0 gallons/5 replicates were sprayed. All appropriate personal protective equipment (PPE) was used and required training was completed including pesticide application training and heat exhaustion training. A randomized block design was used with 5 replicates for each treatment. Two adjacent vines were used as one experimental unit and the area between two trunks (yellow box) was sprayed and assessed (FIG. 16).
The trial was conducted at Kearney Agricultural Research and Extension Center, Parlier, CA on blocks of the susceptible white wine variety Sauvignon Blanc. Total of 5 different gene targets from grapevine powdery mildew E. necator, EnCYP51 (SEQ ID NO:182), EnLIP1 (SEQ ID NO:183), EnICL2 (SEQ ID NO:186), EnMS (SEQ ID NO:188) and EnAPG9 (SEQ ID NO:208) were tested at this site by backpack spraying of the experimental units with dsRNA designed specifically against these target genes. The treatments were placed in a randomized block design with 5 replicates of each (dsRNA treatments 1-5), 5 replicates of Gold Standard (GS) and 5 replicates of untreated control (UT Control). Gold Standard refers to the pesticides normally used by growers to control powdery mildew: Sulfur and other chemical fungicides such as Rally, Quintec, and Luna. Between each treatment replicate, consisting of two vines, there was a spacer vine to avoid the spray drift from one treatment another.
FIG. 17 provides an overview of the treatment schedule at Kearney. A total of 4 treatments of dsRNA were performed between May and July, replacing the 4 final treatments of the GS. Data were collected at the times marked by the gray dots in FIG. 17. The monitoring of powdery mildew index data and manual scouting of disease in the field was used to adjust timing schedule per standard protocol (www2.ipm.ucanr.edu/weather/grape-powdery-mildew-risk-assessment-index/?src=redirect2refresh).
The total number of bunches per replicate (mean of 130) and the bunches with powdery mildew growth were counted and percent of infected bunches per replicate was calculated.
Disease severity was calculated by counting the number of infected berries compared to total berries in a bunch. 25 bunches from both sides of the canopy were assessed per replicate.
This trial was conducted at University of California Davis Plant Pathology Armstrong Facility on white wine variety Chenin Blanc. A total of 4 different gene targets from grapevine powdery mildew E. necator, EnLIP1 (Seq ID No:183), EnICL2 (Seq ID 186), EnMS (Seq ID No:188) and EnAPG9 (Seq ID No:208) were tested at this site by treating the vines with dsRNA designed against these target genes. A randomized block design with 5 replicates of each (treatments 1-5) and 5 replicates of untreated control (UT Control) was utilized. Spray protocols and spray volumes were the same as done by Akif Eskalen's team as shown on this link (Elfar et al. 2021, ucanr.edu/sites/eskalenlab/files/355630.pdf) and in Table 10. Eskalen's lab performed 3rd party commercial fungicide trials for the industry.
In this field trial, a total of 3 sprays of dsRNA were performed between May and early June (FIG. 21). For the dsRNA treatments, no parallel chemical treatments were performed prior to the dsRNA treatments. […]

B1: EnCYP51: long dsRNA against E. necator CYP51 (target SEQ ID NO:182) (nucleic acid)
chain: TGTCAACGCCGAAGAGATTTACACTAATTTAACAACTCCGGTCTTTGGAAGAGATGTTGTATTTGATTGTCCAAATTCCAAACTCATGGAACAAAAAAAGTTTATGAAAACGGCTCTTACCATTGAAGCGTTCCATTCCTATGTAACAATAATACAAAATGAAGTAGAGGCATATATAAACAATTGCGTTAGCTTTCAGGGTGAGAGTGGCACAGTAAACATCTCAAAAGTTATGGCGGAAATCACTA
modifications: misc_feature 1..248: note = Inhibitory double stranded RNA; listed as RNA
- visual powdery mildew coverage and density (E. necator): Less powdery mildew density
- visual powdery mildew coverage and density (E. necator; listed as E. necator CYP51 dsRNA): less powdery mildew coverage and density
- reduction in spore production (E. necator; grapevine leaf disc assay, long dsRNA): 45%
- reduction in spore production (E. necator; grapevine whole plant assay, long dsRNA): 62%

B2: EnMS: dsRNA against E. necator Malate synthase (target SEQ ID NO:188) (nucleic acid)
chain: TACAAGCTCAGATCAGACCGAAAACTTCCAACGCTTATTATAAGACCTCGTGGCTGGCACTTAGATGAGAAACATGTAACTATTGAAGGAGAGCCAATATCCGGCTCTCTATTCGATTTTGGACTATACTTTTTTCACAATGCCAAAGAACTGATAAAACGAGACTTAGGGCCCTACTTTTATCTTCCAAAGATGGAATCTTATCTAGAAGCCCGTCTTTGGAATGATGTCTTCAACCTAGCACAGGACTATATTGGTATTTCTCGTGGAACTATACGCGCTACAGTTCTAATTGAAACCATACTTGCTGCATTTGAAATG
modifications: misc_feature 1..321: note = Inhibitory double stranded RNA; listed as RNA
- powdery mildew disease incidence ([1]; Armstrong site): ~20%
- mean disease severity (percent of berries with powdery mildew per bunch) ([1]; Armstrong site): 2%

B3: EnLIP1: dsRNA against E. necator TAG lipase 1 (target SEQ ID NO:183) (nucleic acid)
chain: ATTAATACTGGTGCTGTACAGCGCCTATTACACATTAATGAGGACTGTTTAACTGTCACTGTTCAAAAACCATCATATGCGACTCCCGACTCTAAGTTTCCTGTCGTGTTCTCTCTATTTTTTGGAGGGTTTGGTTTTGGTTCAACGGCAATATATGATGCCTCTAAACTTATTCAAGCAGGTATCAATGCAGGTAAACCTATCGTCTACGTTGCTGTAAATTATCGTTTGGGTGCATTTGGATGGCTTGGAGGAAGAGAAATTAAAGAGGCAGGTCTCGCTAATCTTGGCCATTACG
modifications: misc_feature 1..298: note = Inhibitory double stranded RNA; listed as RNA
- powdery mildew disease incidence ([1]; Armstrong site): ~20%
- mean disease severity (percent of berries with powdery mildew per bunch) ([1]; Armstrong site): 1%

B4: E. necator OEC60/OEC61 dsRNA: long dsRNA against E. necator homolog of OEC60/OEC61 (target SEQ ID NO:199) (nucleic acid)
chain: CTGCTACTAGCTTTCATGGTATGAAACTCATTATTGGTGTTTTTATTGGTGAAACTGGTTGCTCTGGCGCTAAAGAGCAGGTGAACCACATCGTTAAATGGGGTAAATGGGATTTGGTAGAACTCATTGTGATCGGGAATGAGGCTCTGTTTAGTGGTCATGCGTCACCCGAAGAGTTAGCCGAATTTATTACCTCGACTAAAATCACCCTCAGATCAGC
modifications: misc_feature 1..220: note = Inhibitory double stranded RNA; listed as RNA
- effect on grapevine powdery mildew growth and reproduction / spore production (E. necator; E. necator on V. vinifera, SIGS): reduces spore production
- grape powdery mildew spore production relative to control treated plants (E. necator; V. vinifera leaf discs (FIG. 12), long dsRNA): 71 % of control

B5: EnAPG9: dsRNA against E. necator Autophagy protein Apg9 (target SEQ ID NO:208) (nucleic acid, listed as Golovinomyces orontii)
chain: ATGCCGTCTATCCCCATCACTATCATTACTGGCTTTCTAGGGTCTGGTAAAACAACTCTCCTTCTCAATATTCTTCCTCAAATACTTGCCAAGAATCCGAAATATAAATTAGCGCTTCTCAAAAATGAATTTGGAGATTTGGCTGTCGATAGTCAACTTGCAGGCTCTTCTATCACTGGTGTTCGTGAGATTCTAAATGGCTGCATTTGCTGTAACCTCGTCGGCTCTCTCTCATCGGCCCTTGAGGAGCTCACAGAGAGTATTTCTCCCGACCGAATAGTGATTGAAACGTCTGGGTCAGCATTCCCTGCAACGCTAGCTATGGAGGTTAATCGACTAGCGCGGGAGACCCAGGGTAAATATGTTCTAGATGGTGTAGTGACTGTTATTGATGTCGAAAACTGGAAGGGATATGAAGATACTAGCTTTACCGCACGATTACAAGCTCGTTACACAGATCTTGTTGTTTTTAATAAGTGGGAGGATGTTGGTGAAAGGAGGTGGGACGAATGTTTAGATCGACTGGGTGATATGGAGGTTGAAATTCCATGGGTTAAGAGTCAGAGGGGATTTGTTGATATGGATATTATCTTTGGCCTTGATGGAGGACTAGCAAAAGAATTAGAGGGAGAAGTAGAGCAAGGCCTACATCAGCAAAAAAAAACGCACAAGGACGGCGAAAGTCACCAGAACGAGGTTGAGGTACTTTCTGTCACCCTTTCTAAAAAATCTGATATCTCCTCGACCATTACACGTCCGAATTCAGAGCTTACCCCAAAAATTGATACTGATGCTCTGCTGAAACTTCTCCAAACAGCACCCAAGGACGAGGTCTACCGGATAAAGTCAATCTTTACTTCTTCTACACCTATGCCTTCATCTACTCCTATATCATCTTCAGATCTATCAGAAACGCCAGTGTCTTCAGTTGCTGGCCCAAATAAATACATTCTAAATTGGTCATTTGGTCGCTGGACCTGCACACCTATGCCCTCCACTAATTCTTCAACCACAGGAGACAGCTTTGAGCACCCATCTAGCGAGGCCGTAGGTCAAGGAGAAGTTTTCCTTCGCATGATTATAATTCTCTCAAGAGGTGCTGGTAAGAAATGGAAAAAAAGACTTGAGGATGGAGGTTTTATACGTTTCAAGGGTGTGGCCGGAACCGACGTACAGAATTTAAATGTTGTTCCCATCAGTTAA
modifications: listed as DNA
- powdery mildew disease incidence ([1]; Armstrong site): ~20%
- fold by which average disease incidence of untreated control increases faster than that of the dsRNA treatment (slopes) ([1]; Armstrong site, FIG. 22 panel B): 2.74 fold
- mean disease incidence ([1]; Armstrong site, July 16, more than six weeks after dsRNA treatments): 24%
- mean disease severity (percent of berries with powdery mildew per bunch) ([1]; Armstrong site): 1%
- powdery mildew infection / disease in vineyard ([1]; topical spraying, vineyard field trials 2021, trial sites in California): effective
